Measured values taken from patent publication US7563585B2, “Methods of assaying compounds that modulate IL-4 receptor-mediated IgE synthesis utilizing a thioredoxin-like 32 kDa protein (TXNL)” (Rigel Pharmaceuticals, Inc., priority 2002, dated 2009).

What was measured:
[1] = system: IL-4 induced germline ε transcription (ε promoter reporter in A5T4 cells); assay: Re-infection assay in naïve A5T4 cells (BFP− vs BFP+ populations, FACS of GFP); type: cell-based, human; conditions: A5T4 reporter line
Description: The ability of peptide DR15wt (SEQ ID NO:1) to inhibit germline ε transcription was confirmed in naïve cells. Briefly, Phoenix cells were transfected with a retroviral vector encoding a BFP-DR15wt (SEQ ID NO:1) peptide fusion as described in WO 99/58663 and WO 97/27213. Naïve A5T4 cells were infected with the resultant virions and grown for 3 days. The infected cells were stimulated with IL-4 (60 U/mL) and, after 3 days, the cells were assessed by FACS for BFP and GFP. […] The BFP fluorescence data corresponding to the BFP^+ and BFP^− populations are provided in Panel A. The GFP fluorescence data corresponding to the BFP^+ and BFP^− populations are presented in Panel B. The reporter ratio for this purpose is determined as the geometric mean of the GFP fluorescence of the BFP^− population divided by the geometric mean of the GFP fluorescence of the BFP^+ population. The reporter ratio for the DR15 in this re-infection assay was 1.69.
A collection of DR15 mutants was generated by replacing double amino acid residues in the sequence of DR15wt (SEQ ID NO:1) with a different amino acid, typically an alanine, as described in copending application Ser. No. 10/095,659. The functional profiles for the mutants derived from DR15wt (SEQ ID NO:1) was obtained by constructing and screening for activity in the A5T4 reporter cell line in the manner described above. […]

[2] = target: T1, human thioredoxin-like 32 kDa protein (hTXNL) (Homo sapiens, UniProt O43396); assay: β-galactosidase yeast two hybrid (YTH) interaction assay; type: binding
T1 construct: expressed in transfected cells; prey cDNA from a library of the A5T4 reporter line (derived from BJAB B-cells)
T1 sequence (O43396 1-289): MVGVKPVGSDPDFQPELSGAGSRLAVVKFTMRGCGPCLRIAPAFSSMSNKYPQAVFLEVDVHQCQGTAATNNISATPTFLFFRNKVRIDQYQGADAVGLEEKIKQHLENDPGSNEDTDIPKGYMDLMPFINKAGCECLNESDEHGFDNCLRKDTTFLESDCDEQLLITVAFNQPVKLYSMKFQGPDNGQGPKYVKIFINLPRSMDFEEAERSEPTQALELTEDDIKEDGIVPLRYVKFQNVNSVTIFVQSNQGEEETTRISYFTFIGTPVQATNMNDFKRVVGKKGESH
Description: Potential binding partners for peptide DR15wt were identified in a β-galactosidase yeast two-hybrid (YTH) assay using peptide DR15wt as bait and a cDNA library constructed from the A5T4 reporter cell line as prey. Binding was assessed by β-galactosidase quantification using BetaFluor (Novagen) as a substrate. A negative interaction control (no cDNA fused downstream of the GAL4 activation domain sequence) was also run. A general outline of the YTH assay is illustrated in FIG. 5A. Following clustering, filtering to remove non-specific bait hits (e.g., GFP and BFP), singletons and clusters recognized by 10 or more cDNA baits (based upon historical YTH assays), and prioritization, 10 prey clones were identified as hits.
Potential targets identified in the YTH assay were reconfirmed as generally outlined in FIG. 6. The cDNA clones identified as hits in the YTH assay were purified and rescreened for interaction with the DR15wt (SEQ ID NO:1) peptide in a YTH assay. The hit clones were also screened in a control assay for interaction with the BFP using a vector (pGBKT7) that contained only the BFP and not the DR15 peptide. At this stage, 8 putative target clones remained.
The interaction of DR15wt (SEQ ID NO:1) peptide and its mutants with the clones identified as potential targets for the peptide DR15wt (SEQ ID NO:1) was then quantified in a galactosidase YTH assay. The YTH assay was performed in the manner described above. A general outline of this YTH assay is illustrated in FIG. 5B. For each clone tested, an interaction profile was developed by comparing the β-galactosidase activity of each mutant to that of the wild type peptide as described above.
The interaction of these IOF and ROF mutants with different polypeptides encoded by the putative target clones were quantified using the YTH assay described above. Based on the YTH assay, for each putative target, a subset of the mutants representing each of the above functional categories, when available, were categorized into the following four interaction categories: (1) reduction of interaction (ROI); (2) loss of interaction (LOT); (3) increase of interaction (101); and (4) interactionally neutral (N), by assessing the binding affinity ratio of the mutant peptide and the wild type peptide (β-gal activity of mutant/wild type) to the putative target. For the YTH interaction assay mutants DR15PE (SEQ ID NO:2), DR15QI (SEQ ID NO:3), and DR15YM (SEQ ID NO:4) as well as originally identified DR15wt (SEQ ID NO:1), were used.

[3] = system: endogenous α promoter (ST486 cells); assay: TAQMAN assay of endogenous germline α promoter transcription in ST486 cells; type: cell-based; conditions: ST486 cells stimulated with TGF-β 40 ng/ml; average of 3 values; p=0.7797
Description: The assay was similar to that described in the immediately preceding section, except that ST486 cells (ATCC # CRL-1647) engineered to express the tetracycline-regulated transactivator were infected and the infected cells were stimulated with TGF-β (40 ng/ml; Peprotech). The primers and probe, which are specific for the transcription product driven by the ST486 endogenous α promoter, were as follows (the probe was labeled at the 5′-end with Fam and at the 3′-end with Tamra): […]

Sequence	functional category based on reporter ratio compared to DR15wt [1]	binding to hTXNL in yeast two hybrid interaction assay [2]	endogenous α inhibition ratio [3]
AARCYMRMPPQSLADAQIYS (Peptide generated by a combinatorial library) [DR15PE, dual alanine mutant of DR15wt]	IOF (An increase of function mutant (IOF) shows a >50% increase in reporter ratio)	found to bind	–
PERCAARMPPQSLADAQIYS (peptide generated from combinatorial library) [DR15YM, dual alanine mutant of DR15wt]	–	found to bind	–
PERCYMRMPPQSLADAAAYS (peptide generated from combinatorial library) [DR15QI, dual alanine mutant of DR15wt]	–	found to bind	–
PERCYMRMPPQSLADAQIYS (peptide generated from a combinatorial library) [DR15wt, 20-mer peptide from a random retroviral library, expressed as BFP-peptide fusion]	–	found to bind	0.98
